Three molecules from paper PMC4353692, “Structure of the Vacuolar H^+-ATPase Rotary Motor Reveals New Mechanistic Insights” (Structure(London, England:1993), 2015) can be followed below.

B1: Manduca sexta V-ATPase subunit G (natural protein, Manduca sexta (endogenous in midgut), UniProt Q25532 1-117, looked up)
chain: MASQTHGIQQLLAAEKRAAEKVSEARKRKAKRLKQAKEEAQDEVEKYRQERERQFKEFEAKHMGTREGVAAKIDAETRIKIDEMNKMVQTQKEAVIKDVLNLVYDIKPELHINYRVV
notes: V-type proton ATPase subunit G, Manduca sexta; Three copies in the holoenzyme (stator filaments S1, S2, S3); also called part of the EG stator filaments S1-S3; source: purified from M. sexta midgut, as part of the V-ATPase holoenzyme
B2: Manduca sexta V-ATPase subunit E (natural protein, Manduca sexta (endogenous in midgut), UniProt P31402 1-226, looked up)
chain: MALSDADVQKQIKHMMAFIEQEANEKAEEIDAKAEEEFNIEKGRLVQQQRLKIMEYYEKKEKQVELQKKIQSSNMLNQARLKVLKVREDHVRNVLDEARKRLAEVPKDIKLYSDLLVTLIVQALFQLVEPTVTLRVRQADKALVESLLGRAQQDYKAKIKKDVVLKIDNENFLPPDTCGGIELIAAKGRIKISNTLESRLELIAQQLLPEIRNALFGRNPNRKFTD
notes: V-type proton ATPase subunit E, Manduca sexta; Three copies in the holoenzyme (stator filaments S1, S2, S3); also called part of the EG stator filaments S1-S3; source: purified from M. sexta midgut, as part of the V-ATPase holoenzyme
B3: Manduca sexta V-ATPase subunit D (natural protein)
chain: not shown
notes: V-type proton ATPase subunit D, Manduca sexta; also called rotor axle; central axle; source: purified from M. sexta midgut, as part of the V-ATPase holoenzyme

Holding throughout (assay): cryo-EM structure; M. sexta V-ATPase holoenzyme purified from tissue, in C12E10; 9.4 Å reconstruction (gold standard FSC 0.143); homology models of the subunits flexibly fitted by MDFF; side chains not resolved
What all share (settings): both partners purified

Experiment [1] addresses T1, Manduca sexta V-ATPase subunit C (Manduca sexta (endogenous in midgut), UniProt Q9U5N1 1-385).
T1 construct: V-type proton ATPase subunit C, Manduca sexta; source: purified from M. sexta midgut, as part of the V-ATPase holoenzyme

In experiment [2] the target is B2.
Experiment [3] deals with T2, Manduca sexta V-ATPase subunit H (Manduca sexta (endogenous in midgut), UniProt Q9U5N0 1-475).
T2 construct: V-type proton ATPase subunit H, Manduca sexta; source: purified from M. sexta midgut, as part of the V-ATPase holoenzyme
T2 sequence (looked up): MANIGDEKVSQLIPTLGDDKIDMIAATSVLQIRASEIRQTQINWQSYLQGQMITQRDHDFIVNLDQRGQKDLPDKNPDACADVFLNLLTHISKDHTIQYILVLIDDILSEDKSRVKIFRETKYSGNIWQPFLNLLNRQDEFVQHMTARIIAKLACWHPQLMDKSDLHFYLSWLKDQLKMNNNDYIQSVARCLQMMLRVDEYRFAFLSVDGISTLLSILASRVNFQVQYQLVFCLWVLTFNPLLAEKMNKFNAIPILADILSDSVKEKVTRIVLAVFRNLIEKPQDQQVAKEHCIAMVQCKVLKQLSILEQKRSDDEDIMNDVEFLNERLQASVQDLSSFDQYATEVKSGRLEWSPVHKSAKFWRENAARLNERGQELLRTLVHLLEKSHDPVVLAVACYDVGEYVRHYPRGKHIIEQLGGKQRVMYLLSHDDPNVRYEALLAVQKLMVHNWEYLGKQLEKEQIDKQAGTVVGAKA

For experiment [4], the target named is T3, Manduca sexta V-ATPase subunit A (Manduca sexta (endogenous in midgut), UniProt P31400 1-617).
T3 construct: V-type proton ATPase catalytic subunit A, Manduca sexta; Three copies in the holoenzyme, (AB)3; source: purified from M. sexta midgut, as part of the V-ATPase holoenzyme
T3 sequence (P31400 whole entry): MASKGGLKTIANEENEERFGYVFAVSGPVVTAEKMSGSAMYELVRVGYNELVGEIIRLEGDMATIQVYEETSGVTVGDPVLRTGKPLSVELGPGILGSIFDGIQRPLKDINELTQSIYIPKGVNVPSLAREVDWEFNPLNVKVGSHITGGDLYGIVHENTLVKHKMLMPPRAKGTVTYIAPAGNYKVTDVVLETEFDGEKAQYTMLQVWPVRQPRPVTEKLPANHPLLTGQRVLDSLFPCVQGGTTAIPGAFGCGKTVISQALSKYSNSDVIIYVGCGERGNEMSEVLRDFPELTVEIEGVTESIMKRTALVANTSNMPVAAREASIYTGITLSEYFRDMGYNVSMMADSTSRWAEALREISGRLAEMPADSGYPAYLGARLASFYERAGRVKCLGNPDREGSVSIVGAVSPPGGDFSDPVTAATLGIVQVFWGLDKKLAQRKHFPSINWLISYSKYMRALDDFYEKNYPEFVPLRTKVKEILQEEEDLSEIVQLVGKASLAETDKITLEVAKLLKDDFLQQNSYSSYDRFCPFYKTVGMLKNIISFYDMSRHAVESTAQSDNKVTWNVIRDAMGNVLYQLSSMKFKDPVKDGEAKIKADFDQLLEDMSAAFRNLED

Experiment [5] deals with T4, Manduca sexta V-ATPase subunit B (Manduca sexta (endogenous in midgut), UniProt P31401 1-494).
T4 construct: V-type proton ATPase subunit B, Manduca sexta; Three copies in the holoenzyme, (AB)3; source: purified from M. sexta midgut, as part of the V-ATPase holoenzyme
T4 sequence (P31401 whole entry): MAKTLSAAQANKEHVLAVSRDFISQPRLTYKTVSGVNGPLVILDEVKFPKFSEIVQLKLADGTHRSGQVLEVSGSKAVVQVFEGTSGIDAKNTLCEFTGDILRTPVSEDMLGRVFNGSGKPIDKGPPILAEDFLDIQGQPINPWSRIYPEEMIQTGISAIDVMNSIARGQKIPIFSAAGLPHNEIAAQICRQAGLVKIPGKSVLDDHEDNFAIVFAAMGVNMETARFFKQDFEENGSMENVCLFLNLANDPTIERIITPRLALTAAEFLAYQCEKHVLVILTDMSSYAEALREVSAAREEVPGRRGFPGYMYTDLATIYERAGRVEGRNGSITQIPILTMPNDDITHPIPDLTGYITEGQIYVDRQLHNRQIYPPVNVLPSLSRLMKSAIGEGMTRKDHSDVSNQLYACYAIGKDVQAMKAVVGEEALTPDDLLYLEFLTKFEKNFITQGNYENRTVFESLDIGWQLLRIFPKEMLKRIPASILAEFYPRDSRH

T1 sequence (Q9U5N1 whole entry): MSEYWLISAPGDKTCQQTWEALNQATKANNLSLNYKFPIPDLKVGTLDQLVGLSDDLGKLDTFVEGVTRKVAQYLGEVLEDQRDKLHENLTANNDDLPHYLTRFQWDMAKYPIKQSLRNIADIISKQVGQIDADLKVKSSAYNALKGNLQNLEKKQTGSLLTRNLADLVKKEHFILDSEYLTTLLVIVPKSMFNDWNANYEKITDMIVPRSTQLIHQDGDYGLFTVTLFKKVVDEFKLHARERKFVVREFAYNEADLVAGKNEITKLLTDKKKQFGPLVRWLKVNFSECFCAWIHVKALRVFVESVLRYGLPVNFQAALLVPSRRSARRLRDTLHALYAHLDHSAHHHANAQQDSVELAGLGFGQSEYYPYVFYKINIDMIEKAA

On to B1, for which the binding result in experiment [1], in experiment [2] and in experiment [3] was “binds” throughout.
B2: the binding result in experiment [1] and in experiment [3] was “binds” throughout.
On to B3, for which the binding result in experiment [4] and in experiment [5] was “binds” each time.
